Data reported in the supplement of paper PMC9942255.
Several values for one entry are separate records, joined by “and”; a condition that tells them apart may be missing. Equal values may be shown once.

Test system: Bacillus subtilis DB104 (SP-AmyQ fusion secretion)
Test: AmyQ secretion efficiency, weighted average sort bin (1 = best secretion, 10 = worst) (bin number (weighted average, 1-10)); higher = lower secretion efficiency
In short: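 The secretion score was taken as the read-frequency-weighted mean bin number, normalised to beads per bin, with low-abundance sequences excluded. Bins came from large-particle flow cytometry sorting of occupied alginate beads (~65 nL, about 0.3 cells each, with fluorescein-starch) into 10 equally populated groups by green/red fluorescence ratio after about 13 h at room temperature and nile red staining. The cells were a B. subtilis DB104 library with mature AmyQ fused to designed signal peptides, integrated at amyE, and each bin's amplicons were Illumina-sequenced.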

Row | Sequence | AmyQ secretion efficiency
1 | MGLGKKLSVAVAASFMSLSISLPGVQWAEG | 3.19
2 | MGLGKKLSVAVAASFMSLSISLPGVQYAEG | 4.06
3 | MGLGKKLSVAVAASFMSLSISLPGWQAAEG | 5.06
4 | MGLGKKLSVAVAASFMSLSISLPVQAAEG | 1.35
5 | MGLGKKLSVAVAASFMSLSISLRKKVQAAEG | 8.03
6 | MGLGKKLSVAVAASFMSLSISLSPGVQAAEG | 1.19
7 | MGLGKKLSVAVAASFMSLSISLVSVQAAEG | 1.37
8 | MGLGKKLSVAVAASFMSLSPGVQAAEG | 1.73
9 | MGLGKKLSVAVAASFPGVQAAEG | 7.32
10 | MGLGKKNLNTMFLSVAVAASFMSLSISLPGVQAAEG | 2.66
11 | MGLGLLLSVAVAASFMSLSISLPGVQAAEG | 2.94
12 | MGLGTTFLSVAVAASFMSLSISLPGVQAAEG | 2.45
13 | MGLKKRVSMFLVALTMCGGLFVTPAKAVKT | 3.29
14 | MGMKKKLRKKRASAALGLALVGGGTWAAFN | 5.51
15 | MGMKKKLSLGVASAAGGTWAAFN | 8.23
16 | MGMKKKLSLGVASAALGLALVGGGGWAAFN | 6.46
17 | MGMKKKLSLGVASAALGLALVGGGQWAAFN | 5.94
18 | MGMKKKLSLGVASAALGLALVGGGSWAAFN | 6.13
19 | MGMKKKLSLGVASAALGLALVGGGTWCAFN | 4.28
20 | MGMKKKLSLGVASAALGLALVGGGTWFAFN | 7.33
21 | MGMKKKLSLGVASAALGLALVGGGTWGAFN | 7.37

Row | Sequence | AmyQ secretion efficiency
22 | MGMKKKLSLGVASAALGLALVGGGTWKAFN | 5.21
23 | MGMKKKLSLGVASAALGLALVGGGTWNAFN | 6.68
24 | MGMKKKLSLGVASAALGLALVGGGWWAAFN | 7.18
25 | MGMKKKLSLGVASAALGLALVGKKRTWAAFN | 8.1
26 | MGMKKKLSLGVASAALGLALVGRRKRKKTWAAFN | 6.59
27 | MGMKKKSRTGVASAALGLALVGGGTWAAFN | 5.34
28 | MGMKKKYTQGSRYRALGLALVGGGTWAAFN | 7.3
29 | MGMKRVITCVMAASLTLGSLLPAGYATAKED | 6.01
30 | MGMLFKIIGWILLLCIIPLFAFTVIASGKEV | 2.66
31 | MGMTSNLSLGVASAALGLALVGGGTWAAFN | 8.22
32 | MGQGKGSVFLILLLMLTLVVAPKEKAEAASS | 1.82
33 | MGRFLIGAGVAAVILSGWFIADHQTHSQEM | 6.17
34 | MGRFSTAYLLLGILCSAAVFLIGAPSRALGAEV | 2.59
35 | MGRIKTKITILLVLLLLLAGGYMYIN | 5.89 and 6.33 and 5.86
36 | MGRIKTKITILLVLLLLLAGGYTYIN | 5.32
37 | MGRIKTKITILLVLLLLLAGGYWYIN | 6.88
38 | MGRIKTKITILLVLLLLLAGPYMYIN | 7.19
39 | MGRIKTKITILLVLLLLLAGTYMYIN | 6.42
40 | MGSGTIWTIILGALLVCCIAVAYTLTKSQAGASSS | 7.61
41 | MGSGTSMLFSTLALAAGMTAAAAGGAGTIHAQQP | 2.01
42 | MGSLTKTSLLLAGLCTAAQMVFVTHASAEES | 4.02

Row | Sequence | AmyQ secretion efficiency
43 | MGSRTIWTIILGALLVCCIAVAYTLTKSQAGASSS | 5.01
44 | MGSSILLSSLAISALSLGLLVSAPTASFAAES | 3.62
45 | MGSSLAAGLTASAIVGTTLVVTPAEAATI | 4.99
46 | MGSTGSIMFACLILFSFTITTFINTETISAFSN | 4.71
47 | MGSTSFILWISLLFALTLIFTMAFSNMSAQAAGK | 6.79
48 | MGSTWSLIVCLTALLSVLLVAGSVPFHAEAKKP | 4.11
49 | MGTFSTASILLLGILCSAAVFLIGAPSRALGAEV | 2.99
50 | MGTLTTLTSLLLAGLCTAAQMVFVTHASAEES | 3.24
51 | MGTTIIILLLAVIIAAAAAGVAFYV | 7.47
52 | MGTTIVAGLAVSAVVGSSMAAAPAEAKTI | 6.13
53 | MHLIRAAGAVCLARFNEDQHQAEGENT | 8.19
54 | MHLIRAAGAVCLAVVLIAGCAFNEDQHQAEGENT | 5.56
55 | MHLIRAAGAVCLAVVLIAGCRDEEDEHQAEGENT | 4.66
56 | MHLIRAAGAVCLAVVLIAGCREAEGENT | 4.69
57 | MHLIRAAGAVCLAVVLIAGCRFGSIIVSAEGENT | 5.81
58 | MHLIRAAGAVCLAVVLIAGCRFIIVAIGAEGENT | 6.53
59 | MHLIRAAGAVCLAVVLIAGCRFNEDQAEGENT | 5.78
60 | MHLIRAAGAVCLAVVLIAGCRFNEDQHQAEDENT | 5.99
61 | MHLIRAAGAVCLAVVLIAGCRFNEDQHQAEEENT | 4.77
62 | MHLIRAAGAVCLAVVLIAGCRFNEDQHQAEGDED | 6.29
